From IntAct's records for PubMed 32433612

The substances below were run against tasl_human TASL (UniProt Q9HAI6).

| Substance | effect of a mutation on the interaction |
| --- | --- |
| Solute carrier family 15 member 4 (Homo sapiens), Q8N697 E465A | disrupting interaction strength |
| Solute carrier family 15 member 4 (Homo sapiens), Q8N697 E465K | disrupting interaction strength |
| Solute carrier family 15 member 4 (Homo sapiens), Q8N697 E44A | with no effect |
| Solute carrier family 15 member 4 (Homo sapiens), Q8N697 L14A;L15A | with no effect |
| Solute carrier family 15 member 4 (Homo sapiens), Q8N697 E47A | with no effect |
